According to the supplement of paper PMC10126150:
± gives the standard deviation of the averaged measurements.

test system: ATP; assay: switch fluorescence ratio, 500 uM ATP over buffer (Cy3 cluster intensity, sum of 5 cycles each) (fold (ratio)); higher = stronger signal-on switching upon ATP binding; sequences stand for … in TCGTCGGCAGCGTCAGATGTGTATAAGAGACAGTTTTTTTTTTTTTTTTTTTTTTTTT…TC; conditions: aptamer strand: ATP DNA aptamer (quencher-CACCTGGGGGAGTATTGCGGAGGAAGG + anchor), 100 nM annealed; ATP concentration: 500 uM
Summary of the method: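 The quencher-labelled ATP aptamer, at 100 nM, was annealed to Cy3-labelled switching-strand clusters on a modified Illumina MiSeq flow-cell. The clusters were imaged in selection buffer, then after 15 min with 500 uM ATP at 22 °C, and this buffer/ATP cycle ran five times with NaOH stripping and re-annealing between runs. Per-cluster fluorescence ratios, summed target-cycle over summed buffer-cycle Cy3 intensity, were averaged per switch-domain sequence. Clusters outside 100-1000 RFU were excluded.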
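Also: ATP exposure 15 min at 22 °C before imaging.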

| Sequence | switch fluorescence ratio |
| --- | --- |
| TATGGGGAGC | 0.998 ± 0.044 |
| GCTATTCGAC | 1.16 ± 0.022 |
| GAAGTAGGAG | 1.01 ± 0.032 |
| AGGGGAATTG | 0.955 ± 0.021 |
| ACTACCTACA | 1.364 ± 0.0065 |
| TAAGAGCAGG | 1.1 ± 0.091 |
| ACCGGCACAT | 1.273 ± 0.0092 |
| TTTTGGGGC | 1.04 ± 0.013 |
| TTCCATTCGA | 0.992 ± 0.044 |
| GATGTTAGGT | 0.996 ± 0.023 |
| AATTCAGCCT | 1.06 ± 0.035 |
| GCGTTGTTCG | 0.99 ± 0.044 |
| TACGTCTTAG | 0.972 ± 0.048 |
| CCAATTTATG | 0.9919 ± 0.0078 |
| CTAGGATGTG | 0.997 ± 0.031 |
| GTTGTAAAGT | 1.03 ± 0.036 |
| TTGATATCAT | 0.97 ± 0.049 |
| CGTTGCAGT | 0.986 ± 0.011 |
| AGGGGTCTGT | 1.015 ± 0.0013 |
| AGTTGGATC | 1.02 ± 0.015 |
| TTAGGGGCTT | 1.02 ± 0.033 |
| AAAGGGGCGC | 0.993 ± 0.035 |
| TTGGTTCGGA | 0.993 ± 0.015 |
| TTCTACAGTA | 1.036 ± 0.0059 |
| TTGGGCACTT | 0.997 ± 0.068 |
| CCTCTGATCT | 1.38 ± 0.1 |

| Sequence | switch fluorescence ratio |
| --- | --- |
| ACGTGTTGGC | 1.02 ± 0.052 |
| ACGCTCCTGG | 1.15 ± 0.034 |
| CGGAGAATGG | 1.11 ± 0.13 |
| AATGTTTTTT | 1 ± 0.016 |
| AAAGGTGCCT | 1.05 ± 0.031 |
| CATAAAATCG | 0.9666 ± 0.0091 |
| AGTTCGGTGC | 0.9799 ± 0.0012 |
| TCTCCTTTTT | 1.02 ± 0.053 |
| CCGGCTGGGT | 0.9584 ± 0.0069 |
| ACGCTAAATA | 1.26 ± 0.03 |
| ATGGGCAGAT | 0.994 ± 0.071 |
| TAGTTGGGCG | 0.984 ± 0.098 |
| GCTCTAGATC | 1.35 ± 0.07 |
| AAGGATGTTT | 0.9824 ± 0.0033 |
| GGTTTAAGAT | 1.0263 ± 0.00079 |
| TCACGAGTTT | 1.014 ± 0.0038 |
| AAGGGCTATA | 1.01 ± 0.047 |
| TTTGCGTTCA | 1.02 ± 0.078 |
| CACGGGGAAC | 1.28 ± 0.32 |
| TAGGGAGGCT | 0.992 ± 0.038 |
| TTCCCACTAC | 2.63 ± 0.086 |
| TTCTTCACGG | 1.04 ± 0.035 |
| CCTCCCTTTT | 2.2 ± 0.4 |
| TTTTTGACAC | 1.26 ± 0.38 |
| AGTTATTGAG | 0.9991 ± 0.0043 |
| TGGGGGGTGT | 1.02 ± 0.069 |

| Sequence | switch fluorescence ratio |
| --- | --- |
| TCGTGCCAGG | 1.032 ± 0.01 |
| CTAGTCAAGA | 1.027 ± 0.0066 |
| GCCTGCATTT | 1.02 ± 0.021 |
| TGGTCGGGGT | 1.01 ± 0.013 |
| GGGGTTTATG | 0.975 ± 0.028 |
| TATTTCGAAC | 1.02 ± 0.015 |
| AAAGTCTGAT | 0.959 ± 0.027 |
| GACGGGATTG | 1.015 ± 0.006 |
| GATGTATGTT | 0.978 ± 0.037 |
| TTGTGGGGAA | 1.12 ± 0.2 |
| GATAGACCAG | 1.01 ± 0.025 |
| TTCCTTTTTA | 1.02 ± 0.015 |
| CAGGCGACGG | 1.01 ± 0.033 |
| AAATATTTTA | 0.999 ± 0.015 |
| GGTGTTGGTG | 1.01 ± 0.025 |
| AGTTTGGGAA | 1 ± 0.018 |
| ATTCGTTTTA | 0.975 ± 0.013 |
| CAGGTCCGGG | 1.02 ± 0.018 |
| TTTGGTGTCT | 0.96 ± 0.025 |
| TAATGCTAAT | 1.07 ± 0.073 |
| TATTTAAT | 1.07 ± 0.11 |
| CTCTGTACAG | 1.01 ± 0.018 |
| GACTCGATCC | 1.08 ± 0.023 |
| TTTTCGGGAT | 1.19 ± 0.42 |
| TGTTTTGGGG | 0.998 ± 0.035 |
| AGGGGAAAGA | 1.02 ± 0.04 |

| Sequence | switch fluorescence ratio |
| --- | --- |
| TGTTCCAATA | 1.03 ± 0.024 |
| CGTACGAAGG | 0.971 ± 0.028 |
| GATTAAAACT | 1.07 ± 0.025 |
| GCGGGCAATG | 1.052 ± 0.0089 |
| AGCTAGTATG | 0.993 ± 0.016 |
| AGTTTAGGGG | 0.9796 ± 0.0016 |
| AGGACGGCCA | 0.998 ± 0.021 |
| AGGGAATGTG | 0.987 ± 0.034 |
| TTAAACGCTT | 1.02 ± 0.043 |
| CAGGATGTGC | 0.992 ± 0.032 |
| AAGTAAACAT | 1.06 ± 0.036 |
| CGAGGGAGGC | 1.011 ± 0.0095 |
| GGAACATGGG | 1.004 ± 0.0024 |
| TAACCTACCG | 1.41 ± 0.037 |
| GTGAGTAAGG | 0.9778 ± 0.00085 |
| TTGTCATTGG | 0.992 ± 0.019 |
| CTCAGAGTTT | 1 ± 0.012 |
| CCGGAAGGGC | 1.84 ± 0.69 |
| ATCCTTTCAG | 0.995 ± 0.016 |
| TTCCCGCTGT | 1.75 ± 0.023 |
| TTGTTTAATA | 1.02 ± 0.019 |
| AGGCTGGGGG | 0.996 ± 0.013 |
| GGGGCATTTA | 0.9643 ± 0.0047 |
| TTAGTCCCCG | 1.02 ± 0.038 |
| ACTCTGGCGT | 1.08 ± 0.024 |
| AGCGGGTTTC | 1.02 ± 0.015 |

| Sequence | switch fluorescence ratio |
| --- | --- |
| TTCTAGGTCT | 1.02 ± 0.037 |
| AATGGAACGG | 1.02 ± 0.032 |
| TCATTTTGAA | 1.01 ± 0.0012 |
| GAGGACTAGG | 1.01 ± 0.013 |
| AGGTCTTCCG | 1 ± 0.011 |
| CTAGTTTGGA | 1 ± 0.011 |
| TACAGAATCG | 1.014 ± 0.0014 |
| TACCGGGGTA | 1.01 ± 0.03 |
| AAGTCGACGT | 1.03 ± 0.041 |
| ACTTGAGGGG | 1.03 ± 0.043 |
| TCGGGGTGGG | 1.03 ± 0.043 |
| AGCATTTTTC | 1.02 ± 0.028 |
| TTTAGGCTTG | 1.02 ± 0.017 |
| TTGTCATTTA | 0.992 ± 0.031 |
| AAAGACGCGG | 0.992 ± 0.015 |
| TACCGGGGGG | 1.03 ± 0.029 |
| CTGGTGGACG | 1.041 ± 0.0042 |
| TATTGTGCGG | 1.01 ± 0.037 |
| TGTGCTTGGG | 1.04 ± 0.027 |
| TTATCCGAGA | 1.04 ± 0.019 |
| CGCTAGGGAC | 1.314 ± 0.003 |
| TTTATCAGAC | 1.07 ± 0.059 |
| AGTGGAAAC | 1.0032 ± 0.00099 |
| AGTGTTGTTG | 0.9727 ± 0.0095 |
| ACACACGGTC | 1.34 ± 0.1 |
| TCTTGAGCAT | 1.34 ± 0.13 |

| Sequence | switch fluorescence ratio |
| --- | --- |
| GCTCACAGAA | 1.02 ± 0.019 |
| CGTTGCTCCC | 1.3 ± 0.49 |
| TTAATATTAC | 1.01 ± 0.014 |
| AACAGGCGGC | 0.9872 ± 0.00069 |
| TGGGTTATAT | 0.979 ± 0.011 |
| GGTGAAGGCA | 1 ± 0.023 |
| GGAGGAGTTT | 1.65 ± 0.92 |
| CATTGTTTTG | 0.9676 ± 0.0041 |
| CGGGCATTAG | 1.209 ± 0.0071 |
| AAAAGATCAT | 0.999 ± 0.012 |
| TAATTAGAGT | 0.967 ± 0.046 |
| GTGGACTTAA | 0.9953 ± 0.0046 |
| TTTATGCTTT | 1.01 ± 0.024 |
| ACGGGGACGG | 1.03 ± 0.042 |
| AAAGCCCGCG | 0.961 ± 0.066 |
| AATGGATAAC | 0.9862 ± 0.0045 |
| CAAACGCCGA | 1.103 ± 0.0045 |
| GAATAAAATA | 1.02 ± 0.039 |
| TAGATTTTTT | 1.02 ± 0.019 |
| TTGAAAGTG | 0.9785 ± 0.0043 |
| CAATGAGTTT | 0.97 ± 0.033 |
| GGCGTGTTGG | 1.02 ± 0.045 |
| CTATTTTGGT | 0.9784 ± 0.0079 |
